Experimental data taken from paper PMC12723162, “Alphaherpesvirus pUL21 homologs use non-canonical sequences to compete with cellular adaptors for protein phosphatase 1 binding” (The Journal of Biological Chemistry, 2025).

B1: pORF38-GFP (protein)
chain: MEFPYHSTVSYNGVTFYFNERATRAYFICGGCLISIPRKHGGEIAKFGHVVRGVGPGDRSVASYVRSELNRTGKTWAVSSNNNCVFLDRVALLAAGSGAVDRDLCGTFDVEVEDPTLADYLVSLPVTHLTLVAGVDVTRENKLKLFPTPTAINTTNGFMYVPNEASFSLVYMRMLELPESLQELVSGLFDGTPEIRDALNGSNDDEKTSIIVSRRAADVVTEDVKADDVPISGEPYSEKQPRRRKKSDHITLSNFVQIRTIPRVMDIWDPRHKATTHCIRALSCAVFFADEVIFKARKWPGLEDELNEARETIYTAVVAVYGERGELPFFGHAYGRDLTSCQRFVIVQYILSRWEAFNCYAVIEDLTRSYVNALPSDDDTDQVAQDLIRTIVDTANSLLREVGFIGTLAETLLFLPLPQLPCYKETSHLAKKEGVRILRLAKTGVGLSDTVPVDVSVTERHEYEISRYLDTLYSGDPCYNGAVRLCRLLGSSIPIALYYNTISGNAFEPYFAGRRYIAYLGALFFGRVHQTPFGDGKKTQR
modifications: left off: GFP, end not stated, kept
B2: pORF38-FV255AA (protein)
chain: MEFPYHSTVSYNGVTFYFNERATRAYFICGGCLISIPRKHGGEIAKFGHVVRGVGPGDRSVASYVRSELNRTGKTWAVSSNNNCVFLDRVALLAAGSGAVDRDLCGTFDVEVEDPTLADYLVSLPVTHLTLVAGVDVTRENKLKLFPTPTAINTTNGFMYVPNEASFSLVYMRMLELPESLQELVSGLFDGTPEIRDALNGSNDDEKTSIIVSRRAADVVTEDVKADDVPISGEPYSEKQPRRRKKSDHITLSNAAQIRTIPRVMDIWDPRHKATTHCIRALSCAVFFADEVIFKARKWPGLEDELNEARETIYTAVVAVYGERGELPFFGHAYGRDLTSCQRFVIVQYILSRWEAFNCYAVIEDLTRSYVNALPSDDDTDQVAQDLIRTIVDTANSLLREVGFIGTLAETLLFLPLPQLPCYKETSHLAKKEGVRILRLAKTGVGLSDTVPVDVSVTERHEYEISRYLDTLYSGDPCYNGAVRLCRLLGSSIPIALYYNTISGNAFEPYFAGRRYIAYLGALFFGRVHQTPFGDGKKTQR
modifications: left off: GFP, end not stated, kept
B3: pUL21ΔLR (protein)
chain: MELSYATTMHYRDVVFYVTTDRNRAYFVCGGCVYSVGRPCASQPGEIAKFGLVVRGTGPDDRVVANYVRSELRQRGLQDVRPIGEDEVFLDSVCLLNPNVSSELDVINTNDVEVLDECLAEYCTSLRTSPGVLISGLRVRAQDRIIELFEHPTIVNVSSHFVYTPSPYVFALAQAHLPRLPSSLEALVSGLFDGIPAPRQPLDAHNPRTDVVITGTVSEFVQVKHIDRVGPAGVSAPPGPTLRELWWVFYAADRALEEPRADSGLTREEVRAVRGFREQAWKLFGSAGAPRAFIGAALGLSPLQKLAVYYYIIHRERRLSPFPALVRLVGRYTQRHGLYVPRPDDPVLADAINGLFRDALAAGTTAEQLLMFDLLPPKDVPVGSDVQADSTALLRFIESQRLAVPGGVISPEHVAYLGAFLSVLYAGRGRMSAATHTARLTGVTSLVLAVGDVDRLSAFDRGAAGAASRTRAAGYLDVLLTVRLARSQHGQSV
modifications: left off: GFP (from the vector pEGFP-N1), end not stated, kept
B4: pUL21-FV242AA (protein)
chain: MELSYATTMHYRDVVFYVTTDRNRAYFVCGGCVYSVGRPCASQPGEIAKFGLVVRGTGPDDRVVANYVRSELRQRGLQDVRPIGEDEVFLDSVCLLNPNVSSELDVINTNDVEVLDECLAEYCTSLRTSPGVLISGLRVRAQDRIIELFEHPTIVNVSSHFVYTPSPYVFALAQAHLPRLPSSLEALVSGLFDGIPAPRQPLDAHNPRTDVVITGRRAPRPIAGSGAGSGGAGAKRATVSEAAQVKHIDRVGPAGVSPAPPPNNTDSSSLVPGAQDSAPPGPTLRELWWVFYAADRALEEPRADSGLTREEVRAVRGFREQAWKLFGSAGAPRAFIGAALGLSPLQKLAVYYYIIHRERRLSPFPALVRLVGRYTQRHGLYVPRPDDPVLADAINGLFRDALAAGTTAEQLLMFDLLPPKDVPVGSDVQADSTALLRFIESQRLAVPGGVISPEHVAYLGAFLSVLYAGRGRMSAATHTARLTGVTSLVLAVGDVDRLSAFDRGAAGAASRTRAAGYLDVLLTVRLARSQHGQSV
modifications: left off: GFP, end not stated, kept
B5: pUL21ΔR (protein)
chain: MELSYATTMHYRDVVFYVTTDRNRAYFVCGGCVYSVGRPCASQPGEIAKFGLVVRGTGPDDRVVANYVRSELRQRGLQDVRPIGEDEVFLDSVCLLNPNVSSELDVINTNDVEVLDECLAEYCTSLRTSPGVLISGLRVRAQDRIIELFEHPTIVNVSSHFVYTPSPYVFALAQAHLPRLPSSLEALVSGLFDGIPAPRQPLDAHNPRTDVVITGRRAPRPIAGSGAGSGGAGAKRATVSEFVQVKHIDRVGPAGVSAPPGPTLRELWWVFYAADRALEEPRADSGLTREEVRAVRGFREQAWKLFGSAGAPRAFIGAALGLSPLQKLAVYYYIIHRERRLSPFPALVRLVGRYTQRHGLYVPRPDDPVLADAINGLFRDALAAGTTAEQLLMFDLLPPKDVPVGSDVQADSTALLRFIESQRLAVPGGVISPEHVAYLGAFLSVLYAGRGRMSAATHTARLTGVTSLVLAVGDVDRLSAFDRGAAGAASRTRAAGYLDVLLTVRLARSQHGQSV
modifications: left off: GFP (from the vector pEGFP-N1), end not stated, kept
B6: pUL21ΔL (protein)
chain: MELSYATTMHYRDVVFYVTTDRNRAYFVCGGCVYSVGRPCASQPGEIAKFGLVVRGTGPDDRVVANYVRSELRQRGLQDVRPIGEDEVFLDSVCLLNPNVSSELDVINTNDVEVLDECLAEYCTSLRTSPGVLISGLRVRAQDRIIELFEHPTIVNVSSHFVYTPSPYVFALAQAHLPRLPSSLEALVSGLFDGIPAPRQPLDAHNPRTDVVITGTVSEFVQVKHIDRVGPAGVSPAPPPNNTDSSSLVPGAQDSAPPGPTLRELWWVFYAADRALEEPRADSGLTREEVRAVRGFREQAWKLFGSAGAPRAFIGAALGLSPLQKLAVYYYIIHRERRLSPFPALVRLVGRYTQRHGLYVPRPDDPVLADAINGLFRDALAAGTTAEQLLMFDLLPPKDVPVGSDVQADSTALLRFIESQRLAVPGGVISPEHVAYLGAFLSVLYAGRGRMSAATHTARLTGVTSLVLAVGDVDRLSAFDRGAAGAASRTRAAGYLDVLLTVRLARSQHGQSV
modifications: left off: GFP (from the vector pEGFP-N1), end not stated, kept

System: endogenous PP1α
Assay: GFP affinity capture / co-IP of endogenous PP1α with GFP-tagged bait
Assay type: binding, human
Details: HEK 293T cells, 24 h post-transfection, GFP-Trap, immunoblot, representative of two independent experiments
Source text: Bacterial expression plasmids encoding the mouse PP1γ catalytic domain (residues 7–300)-H6 and pUL21-H6, and mammalian expression vectors encoding pUL21(FV242AA)-GFP, pORF38-GFP and pORF38(FV255AA)-GFP, were described previously ([23]). We note that the mouse and human PP1γ catalytic domains share 100% amino acid identity. pORF38-NLT-H6 was generated by sub-cloning residues 1 to 263 of ORF38 into the vector pOPTnH ([52]). pUL21-RVxF-H6 was generated by inserting the mutations A237V and V239F into pUL21-H6 by QuikChange site-directed mutagenesis. Human PP1α was cloned from HeLa cell cDNA into a vector derived from pF5K (Promega) with an N-terminal Myc epitope tag via restriction-based cloning, and point mutations were introduced into Myc-PP1α by QuikChange mutagenesis. A plasmid encoding pUL21-GFP was generated by sub-cloning a codon-optimized synthetic UL21 gene (GeneArt) into pEGFP-N1 (Clontech), yielding an identical pUL21-GFP amino acid sequence as used in ([23]). pUL21-ΔL, -ΔR and -ΔLR were generated from this vector via inverse PCR, and point mutations were introduced via QuikChange mutagenesis.
Mycoplasma-free human embryonic kidney 293T (HEK 293T) cells (American Type Culture Collection #CRL-3216) were maintained in Dulbecco’s modified Eagle’s medium (DMEM) with high glucose (Merck), supplemented with 10% (v/v) heat-inactivated fetal calf serum and 2 mM L-glutamine (complete DMEM) in a humidified 5% CO2 atmosphere at 37 °C. The identity of the cell line was not independently confirmed.
Monolayers of HEK 293T cells were transfected with 7.7 μg of DNA per 9 cm dish, using 18 μg/ml 25 kDa branched polyethylenimine (Merck) or using TransIt-LT1 (Mirus) in accordance with the manufacturer’s instructions. Cells were harvested 24 h post-transfection and incubated for 30 min in ice-cold 10 mM Tris pH 7.5, 150 mM NaCl, 0.5 mM EDTA, 0.5% Igepal CA-630 (a.k.a. NP-40), 1% (v/v) EDTA-free protease inhibitor cocktail (Merck) before clarification at 21,000×g for 10 min at 4 °C. Lysate protein concentrations were measured using the bicinchoninic acid (BCA) assay (Pierce) and normalized before affinity capture using GFP-Trap resin (ChromoTek) following the manufacturer’s protocol. Samples were eluted by heating the resin to 95 °C for 5 min in 45 μl 2 × SDS-PAGE loading buffer. Proteins were separated by SDS-PAGE and transferred to 0.45 μm nitrocellulose membranes (PerkinElmer or Cytiva). Membranes were stained with Ponceau S and imaged using a G:Box XX9 (Syngene) before blocking in Tris-buffered saline with 0.1% TWEEN-20 (TBS-T) supplemented with 5% (w/v) non-fat milk powder. Immunoblotting was performed using antibodies diluted in blocking buffer as listed below, and immunoblots were imaged using an Odyssey CLx (LI-COR Biosciences). Densitometry was performed using Image Studio Lite version 5.2 (LI-COR Biosciences), and statistical tests were performed using Prism version 7 (GraphPad).
The following primary antibodies and dilutions were used for immunoblotting: rabbit anti-CERT 1:10,000 (Abcam #Ab72536), mouse anti-PP1α 1:1000 (Santa Cruz #sc-271762), mouse anti-Myc 1:4000 (Millipore #05–724), rat anti-tubulin (clone YL1/2) hybridoma supernatant 1:40 ([54]). The anti-CERT antibody was validated using a knock-out cell line. The anti-PP1α antibody has been validated by siRNA knockdown ([55]). The anti-Myc antibody was validated using control experiments lacking Myc-tagged transfected constructs ([56]). The anti-tubulin antibody has been validated by immunofluorescence microscopy, immuno-electron microscopy and radiolabeled immunosorbent assay ([54]). Secondary antibodies from LI-COR Biosciences were diluted 1:10,000 as follows: IRDye 680RD goat anti-rat (#926–68029) and goat anti-mouse (#926–68020), or IRDye 800CW goat anti-rabbit (#926–32221).

Molecule	Co-IP of endogenous PP1α	Co-IP of endogenous PP1α (listed as pORF38)	Co-IP of endogenous PP1α (listed as FV255AA)	Co-IP of endogenous PP1α (listed as FV242AA)
B1	consistently co-immunoprecipitated more efficiently by pORF38-GFP than by pUL21-GFP	efficiently precipitate endogenous PP1α	–	–
B2	the interaction is disrupted by mutation of the TROPPO motif	–	abolished binding to PP1	–
B3	completely abolishes PP1α binding	–	–	–
B4	the interaction is disrupted by mutation of the TROPPO motif	–	–	PP1α coIP was abolished
B5	binding is retained	–	–	–
B6	completely abolishes PP1α binding	–	–	–
